Assay results from a protein production outcome set (Wang et al. 2014).

Assay: label from the status in PepcDB records

Sequence | protein production
MRVVVMGCGRVGASVADGLSRIGHEVAIIDRDSAAFNRLSPQFAGERVLGQGFDRDVLLRAGIQGADAFAAVSSGDNSNIISARLARETFGVPRVVARIYDAKRAEVYERLGIPTIATVPWTTDRLLNALMQDTETAKWRDPTGTVAVAEVVLHEDWVGHRATDLEQATGARIAFLIRFGTGVLPEPKTVLQAGDKVYIAAISGRAAEAAAIAALPPSEDFESGARR | failed
MKNIVAGILAHVDSGKTTLSEAMLYQTGRIRKLGRVDHQDTYLDTDSQEKDRGITIFSKQAELTYEDMHIALLDTPGHVDFGTEMERTLQVLDYAVLVINGMDGVQSHTETLWKLLERYEIPVFIFVNKMDMTGYDREYLMDNIRHRLSDGCVDFLCEDAGEHIAMCDENMLERFLETGENREDDIAKAVADRKLFPCYFGSALKNDGVAELLDGMNRYVTEPRRTDEFGARVFKIGRDDKGERLTYMKITGGTLRLKDVLTLTGRQGEETLEKVNQIRVYSGAKYDMVDHVTAGCVCAVPGLVNTYGRQGIGACPDGELPSLEPVLSYKVMYPTDVDAVTMVSKLRQLEEEDPLLQVQWNEAAGEIYIKVMGQVQLEVVAQMVRDRFGIAITYGQGRITYKETIAAPVMGVGHFEPLRHYAEVHLLLEPMENGSGMCFDSICSEDVLDKNWQRLILTHLQEREFRGVLTGSPITDMKITITAGRAHQKHTEGGDFRQATYRAVRQGLMMAESVLLEPVYAFKIEVPQEYAGRVLADIVKMSGSMDGQEIAGETTVITGHAPVYTMREYYSELTAFSRGTGRLQVDIDGYQPCHNTEEVLAERHYDPELDRFNPSSSVFCAHGAGYLVDWYDVYENMHVKEDPGFEISGQLGYTEDGDVTDIPVNRPGKSVSDMSITDEELSEIFARTFGGDYKDKDVALNGRFRRTTSEYKVNGTSSRGSDGTAGGGASAGTAGDSSNSGYRGNGQYNKSQSRDRQPGNGPVVGSRPADRGIATPGAFKRRKSGEDYVIVDGYNVIFAWDTLRELSEHNIDSARGKLMDILSNYQGYMNCHLIVVFDGYKVKDNKGERFPYDDIEVVYTKEGETADAHIEKLTHELARKHKVTVVTSDGLEQIVTMGQGAIRMSSRDFKLEVERVNEHLRENYLKND | failed
MADNKVNLSINGQSKVPPGFRFHPTEEELLHYYLRKKVNSQKIDLDVIREVDLNKLEPWDIQEECRIGSTPQNDWYFFSHKDKKYPTGTRTNRATVAGFWKATGRDKIICSCVRRIGLRKTLVFYKGRAPHGQKSDWIMHEYRLDDTPMSNGYADVVTEDPMSYNEEGWVVCRVFRKKNYQKIDDCPKITLSSLPDDTEEEKGPTFHNTQNVTGLDHVLLYMDRTGSNICMPESQTTTQHQDDVLFMQLPSLETPKSESPVDQSFLTPSKLDFSPVQEKITERPVCSNWASLDRLVAWQLNNGHHNPCHRKSFDEEEENGDTMMQRWDLHWNNDDNVDLWSSFTESSSSLDPLLHLSV | failed
MDHPFNQMRLKLTTELLLDLGSLKPEHIITPRIATDEELSLIHSYDYIQAIRRASHGILNLQEAKKYGLDGDDTLQFRRMHQHSARIVGGALNLADAIMDKSVKNGCHLGGGLHHSLPGRANGFCIYNDVAITIAYLIKHYNQRVLCIDTDAHHGDGTQWSFYTEDQALIYSIHETGKFLFPGSGHYTERGNEQGFGYTVNIPLEPYTEDSSYLEVFKQTIEPIIASFKPDIIVSVHGVDVHYLDPLTHMSCTLNTLYQIPYIIKSLADTYTNGKVMMFGGGGYNIWKVVPRAWSHVFLALEHHHHHH | not failed
MTQHPFISRVAVRNYKSIGYCDVNLRPLTYLVGHNGAGKSNFMDALHFVCDALSYSLDSALNERGGINEVRRRSGGHPTHFALRVEFVMQSGQAGRYGFVIGALKNGGYEVQREECVVAGIGKGPFFRIEKGKLRDSSETTFPSVTADRLALVAASGLTAFRPVFDALTAMGFYNLNPKLMRELQKPQDGRLLRPAGENIASVIGHLEKVAPAQMALIQEYLHSVAPMVHGVERKPIGPMETLEFRQDMAGSKHPWRFLAQNMSDGTLRALGVLSALLQGNVDYSPTLIGIEEPETALHPAASAALREALVRASETTQVLVTSHSPDLLDDHSIDADAVLAVVSEAGETKVAPLDEGSRQVMRDHLFSAGELLRMNQLAPDRASLEQQDKAASGDLFGETESVLEHHHHHH | not failed
